Test results from patent publication US20240368617A1, “NPR1 VARIANT TO ENHANCE PLANT RESISTANCE TO BIOTIC AND ABIOTIC STRESSES AND METHOD THEREOF” (Duke University, published 2024).

Tests used:
Assay in all cases: EMSA
NPR1 = NPR1 (Arabidopsis thaliana, UniProt P93002 SEQ:1-593); settings: tags: His10-MBP (PreScission site) N-terminal, C-terminal Strep tag; E. coli; chain copies: 2 (stated); label: 6-FAM
Experimental: (§1) The npr1(dim) mutant (L49D/F53D/V56D/V83K) was cloned into the pTrcHis vector (Thermo Fisher Scientific) as a His10-MBP fusion protein containing a PreScission protease site following MBP and a C-terminal Strep tag, and was expressed and purified similarly to the WT NPR 1 protein. Purified TGA3 (Asn87-Thr384) at a concentration of 0.6 μM and WT NPR1 or the npr1(dim) mutant at a concentration of 8 μM were used in the EMSA with the 6-fluorescein (6-FAM)-labelled oligonucleotide probes (200 nM) containing the LS5 and LS7 as-I cis-elements of the SA-responsive PRI gene promoter (LS5/LS7, 6-FAM-C-ggg[…]ggg) or DNA sequences with the two as-1 regions replaced with adenosines (LS5/LS7, 6-FAM-C-ggg[…]ggg), with the LS7 as-1 element replaced with adenosines (LS5/LS7, 6-FAM-C-ggg[…]-GAggg) or with the LS5 as-1 element replaced with adenosines (LS5/LS7, 6-FAM-C-ggg[…]ggg) as well as their complementary oligonucleotides (Integrated DNA Technologies). The uppercase bases indicate the LS5/LS7 sequence; the lowercase bases indicate overhangs outside the LS5/LS7 sequence; and bases replaced with adenosines are indicated with A's in the small capital font. Pairs of complementary DNA strands were annealed before the binding reaction. For each binding reaction, the desired protein combination was mixed with the target DNA probe together with 30 ng/μL of poly (dI-dC) (non-specific competitor, Thermo Fisher Scientific) in a binding buffer containing 20 mM HEPES (pH 8.0), 300 mM NaCl, 10% glycerol, 1 mM DTT and 0.2 mM SA. […] After electrophoresis, the gel was scanned with the Typhoon FLA 7000 imager (GE Healthcare).

TGA3 (Asn87-Thr384) = biological target: T1, TGA3 (Asn87-Thr384) (Arabidopsis thaliana, UniProt Q39234 Q39234:87-384); settings: tags: His10-MBP (PreScission site) N-terminal, C-terminal tandem Flag-HA; AT1G22070; E. coli; label: 6-FAM
T1 sequence: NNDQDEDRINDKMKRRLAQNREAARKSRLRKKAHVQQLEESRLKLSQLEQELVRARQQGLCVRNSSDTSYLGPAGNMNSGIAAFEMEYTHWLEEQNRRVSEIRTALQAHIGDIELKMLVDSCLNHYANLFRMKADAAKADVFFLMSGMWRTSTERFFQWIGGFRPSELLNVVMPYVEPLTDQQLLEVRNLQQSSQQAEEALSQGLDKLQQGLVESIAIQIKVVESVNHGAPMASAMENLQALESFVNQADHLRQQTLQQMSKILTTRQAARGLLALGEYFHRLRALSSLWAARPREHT
Experimental: as §1

[1] = biological target: TGA3 (Asn87-Thr384) + NPR1 complex (Arabidopsis thaliana, UniProt Q39234;P93002 Q39234:87-384,P93002:1-593); settings: tags: TGA3-Flag-HA; NPR1-Strep; chain copies: TGA3 dimer x2 + NPR1 dimer (stated); label: 6-FAM
Experimental: as §1

B1: PR1 promoter LS5/LS7 (dsDNA)
DNA 1: GGGCTATGACGTAAGTAAAATAGTGACGTAGAGAGGG
DNA 2: CCCTCTCTACGTCACTATTTTACTTACGTCATAGCCC
B1: no binding (NPR1); binds (TGA3 (Asn87-Thr384)); binds [1].
